Data from patent publication US5731185.

Tested on: HphI restriction endonuclease (Haemophilus parahaemolyticus)
Experiment: cleavage_in_vitro
Conditions: crude extract cleaves lambda DNA; pAGR3-Rg1 clones in ER2252 about 750 units/g

**Q.** How did the activity (units/g cells) turn out when lambda DNA was run?
**A.** 5000
